The target in experiment [1] is ryanodine receptor 1 (RyR1) in porcine skeletal SR membranes (pig (endogenous in porcine skeletal muscle SR)) (UniProt P16960). In words: co-sedimentation; 1-60 nM AF488-FKBP12.6 with SR membranes (0.02 mg/ml skeletal, 0.12 mg/mL cardiac), 90 min at 37 °C, 150 mM KCl, 20 mM K-PIPES pH 7.0, 5 mM GSH, 0.1 mg/ml BSA, 30 nM free Ca2+; bound and free separated at 100,000 x g; non-specific binding with 5 µM unlabeled FKBP12.6 (skeletal) or 20 µM tacrolimus (cardiac); bound AF488 read by fluorescence.

For experiment [2], the target named is skeletal muscle ryanodine receptor RyR1 in porcine skeletal SR membranes (pig (endogenous in porcine skeletal SR membranes)) (UniProt P16960). In words: co-sedimentation; skeletal SR membranes (0.02 mg/ml) incubated 90 min at 37 °C with 1-60 nM AF488-FKBP12.6 in 150 mM KCl, 20 mM K-PIPES pH 7.0, 5 mM GSH, 0.1 mg/ml BSA, 1 mM EGTA, 65 µM CaCl2 (30 nM free Ca2+); non-specific binding with 5 µM unlabeled FKBP12.6; bound and free separated at 100,000 x g for 25 min; fluorescence of the pellet; Kd from Hill fit, n = 3.

Experiment [3] concerns the target cardiac muscle ryanodine receptor RyR2 in porcine cardiac SR membranes (pig (endogenous in porcine cardiac SR membranes)). In words: co-sedimentation; cardiac SR membranes (0.12 mg/mL) incubated 90 min at 37 °C with 1-60 nM AF488-FKBP12.6 in 150 mM KCl, 20 mM K-PIPES pH 7.0, 5 mM GSH, 0.1 mg/ml BSA, 1 mM EGTA, 65 µM CaCl2 (30 nM free Ca2+); non-specific binding with 20 µM tacrolimus; bound and free separated at 100,000 x g for 25 min; fluorescence of the pellet; Kd from Hill fit, n = 5.

The target in experiment [4] is ryanodine receptor 1 (RyR1) in porcine skeletal SR membranes (pig (endogenous in porcine skeletal muscle SR)) (UniProt P16960).

A word on the Kd: it is the constant that tells how readily two partners part at equilibrium.

AF488-G1C-FKBP12.6 (natural protein): the Kd in experiment [1] worked out at 12.6 nM.

In turn, AF488-T6C-FKBP12.6 (natural protein) gave a Kd in experiment [1] of 7.3 nM.

“AF488-labeled E32C FKBP12.6 (null-cysteine background) (natural protein)”: the Kd in experiment [2] worked out at 4.9 nM; in experiment [3], 1.6 nM.

“AF488-labeled G1C FKBP12.6 (null-cysteine background) (natural protein)” displayed a Kd in experiment [3] of 5 nM.

With “AF488-labeled K44C FKBP12.6 (null-cysteine background) (natural protein)”, the Kd was found to be 4.7 nM in experiment [2] and 3.7 nM in experiment [3].

For “AF488-labeled Q65C FKBP12.6 (null-cysteine background) (natural protein)”, the values for the Kd in experiment [2] and in experiment [3] were 3.9 nM and 2.3 nM, respectively.

Take “AF488-labeled R49C FKBP12.6 (null-cysteine background) (natural protein)”: the dissociation constant Kd is 6.4 nM in experiment [2] and 3.6 nM in experiment [3].

On to “AF488-labeled T6C FKBP12.6 (null-cysteine background) (natural protein)”, for which, in experiment [3], the Kd came out at 2.7 nM.

Consider “AF488-labeled T14C FKBP12.6 (null-cysteine background) (natural protein)”, for which the Kd in experiment [2] was found to be 3.7 nM; in experiment [3] it was 3.2 nM.

As to “AF488-labeled T85C FKBP12.6 (null-cysteine background) (natural protein)”, the Kd in experiment [2] was determined as 5.8 nM; in experiment [3], 1.9 nM.

As for “unlabeled WT-CaM (from UniProt P0DP23 1-149) (natural protein)”, the [^3H]ryanodine binding as an index of channel activity, 800 nM CaM, 30 nM Ca2+: increase in experiment [4] turned out to be 20 fold.

The values above are taken from article PMC11180167.
